How the values were obtained:
[1] = Detection of 4-chloro-3-methoxy phenol product by LC-MS/MS; type: biochemical; settings: purified protein
Description: The decarboxylated and chloro hydrolyzed product, 4-chloro-3-methoxy phenol (FIG. 1D), is measured using a LC-MS/MS analytical procedure. […] 10 ul is removed from the reaction mixture and mixed with 90 ul pre-chilled methanol followed by centrifugation at 14,000 rpm for 15 min at 4° C. 10 ul of the supernatant is then transferred into 170 ul ddH2O to achieve 5% methanol solution for injection. 50 ul of the prepared sample is injected into a 4000 Q Trap LC-MS/MS system for sample analysis. LC-MS/MS parameters are: Mobile Phase A, 2 mM ammonium acetate in water; Mobile Phase B, 2 mM ammonium acetate in methanol; Column, Aquasil, 100×2.1 mm, 3 μm, C18 column; Flow Rate, 0.6 ml/min. The MS/MS fragment 157/142 which is common to 4-chloro-3-methoxy phenol, 2-chloro-5-methoxy phenol, and 3-chloro-5-methoxy phenol is monitored at a retention time of 2.88 min.

[2] = 14C assay with purified protein (14CO2 captured on Ca(OH)2 filter paper); type: biochemical; settings: [14C]-carboxyl-labeled dicamba
[3] = Detection of 2,5-DCP product by GC/MS; type: biochemical; settings: purified protein
Description: The decarboxylated and demethylated product of dicamba, 2,5-dichloro phenol or 2,5-DCP (FIG. 1E) is measured using a GC/MS analytical procedure with either liquid injection after liquid/liquid extraction using toluene as the extraction solvent or gas injection using head space method. The head space sample analysis is carried out on an Agilent GC/MS system with a 6890A GC, a 5973N MSD and a CTC CombiPAL auto-sampler or with a 7890A GC, a 5975C MSD and an Agilent GC Sampler 80 auto-sampler with Phenomenex ZB-MultiResidue-1 column (30 m length, 0.25 mm diameter, 0.25 um film) or equivalent. GC/MS parameters are: GC inlet temperature, 200° C.; Carry gas, helium in constant flow mode (1.2 mL/min); Oven temperature program, 70° C. for 1 min and then ramp to 275° C. at 40° C./min. […] The reaction vial is transferred to a agitator for incubation at 90° C. for 4 min at 500 rpm. With a syringe preheated at 110° C., 1000 uL of head space is injected with sample fill speed at 100 uL/sec. A 2-mm diameter liner is used in sample inlet. The MS data acquisition is done in SIM (selected ion monitoring) mode. The positive ion at M/Z 162 for the molecular ion of 2,-5-DCP is monitored at retention time of 4.06 min. Solvent delay for MS acquisition is set at 3 min. GC/MS parameters for liquid sample analysis are the same as those for head space analysis, except that the volume of liquid injection is 1 uL.

[4] = 14C assay with IPTG-induced recombinant E. coli cells (14CO2 capture from [14C]-carboxyl-labeled dicamba); settings: for decarboxylation activity of dicamba: E. coli cell assay, 108 sequences tested; for Enzymatic Detection level: dicamba decarboxylation activity of the protein of the given SEQ ID NO
[5] = Dicamba decarboxylation activity of computationally designed protein variants; settings: for Dicamba Decarboxylation activity: Table 5, designed variants with improved activity; for Percent Activity Improvement Over Parent (%): parent SEQ ID NO:1 or SEQ ID NO:41 listed as 100

Molecule | 4-chloro-3-methoxy phenol product [1] | CO2 product [2] | 2,5-DCP product [3] | decarboxylation activity of dicamba [4] | Dicamba Decarboxylation activity [5] | Percent Activity Improvement Over Parent (%) [5] [%] | Enzymatic Detection level [4] | Dicamba Decarboxylase Activity ([5]; native protein or designed variant versus parent)
SEQ ID NO:108: hypothetical protein SAV2580, Staphylococcus aureus subsp. aureus Mu50 (protein, listed as Staphylococcus aureus) MAKSITFEEHYVIEDIQKETMNAISADPKGVPMKVMLEGLEKKTGFTNADELSHHDERIQFMNNQDVQIQVLSYGNGSPSNLVGQKAIELCQKANDQLANYIAQYPNRFVGFATLPINEPEAAAREFERCINDLGFKGALIMGRAQDGFLDQDKYDIIFKTAENLDVPIYLHPAPVNSDIYQSYYKGNYPEVTAATFACFGYGWHIDVGIHAIHLVLSGIFDRYPKLNMIIGHWGEFIPFFLERMDEALFAEHLNHSVSYYFKNSFYITPSGMLTKPQFDLVKKEVGIDRILYAADYPYIEPEKLGVFLDELGLTDEEKEKISYTNGAKLLGLSSNN | detected | detected | detected | showed decarboxylation activity of dicamba |  |  |  | 
115 (protein, Dicamba decarboxylase variant clone DC.4.161) MAQGKVALEEHFAIPDTLTTYTTSGDYEKELKHRLLDIQDTRLKLMDAHGIETMILSLNAPGVQAIPDRRKAIEIARRANDVLAEECAKRPDRFLAFAALPLQDPDAATEELQRCVNDLGFVGALVNGFSQEGDGQTPLYYDLPQYRPFWGEVEKLDVPFYLHPRNPLPQDSRIYDGHPWLLGPTWAFAQETAVHALRLMASGLFDEHPRLNIILGHMGEGLPYMMWRIDHRNAWVKTPPRYPAKRRFMDYFNENFHITTSGNFRTQTLIDAILEIGADRILFSTDWPFENIDHASDWFNATSIAEADRVKIGRTNARRLFKLDGA |  |  |  |  | Yes | 202 | High | 
SEQ ID NO:114: Design variant of SEQ ID NO: 1 (protein, Dicamba decarboxylase variant clone DC.4.116) MAQGKVALEEHFAIPETLQDSAGAVPGDYWKELQHRLLDIQDTRLKLMDAHGIETMILSLNAPAVQAIPDRRKAIEIARRANDVLAEECAKRPDRFLAFAALPLQDPDAATEELQRCVNDLGFVGALVNGFSQEGDGQTPLYYDLPQYRPFWGEVEKLDVPFYLHPRNPLPQDSRIYDGHPWLLGPTWAFAQETAVHALRLMASGLFDEHPRLNIILGHMGEGLPYMMWRIDHRVAWVKLPPRYPAKRRFMDYFNENFHITTSGNFRTQTLIDAILEIGADRILFSTDWPFENIDHASDWFNATSIAEADRVKIGRTNARRLFKLDGA | detected | detected | detected |  |  |  |  | displays an increase in dicamba decarboxylase activity
112 (protein, Dicamba decarboxylase variant clone DC.4.113) MAQGKVALEEHFAIPETLQDSAGFVPGDYWKELVHRLLDIQDTRLKLMDAHGIETMILSLNAPAVQAIPDRRKAIEIARRANDVLAEECAKRPDRFLAFAALPLQDPDAATEELQRCVNDLGFVGALVNGFSQEGDGQTPLYYDLPQYRPFWGEVEKLDVPFYLHPRNPLPQDSRIYDGHPWLLGPTWAFAQETAVHALRLMASGLFDEHPRLNIILGHMGEGLPYMMWRIDHRVAWVKLPPRYPAKRRFMDYFNENFHITTSGNFRTQTLIDAILEIGADRILFSTDWPFENIDHASDWFNATSIAEADRVKIGRTNARRLFKLDGA |  |  |  |  | Yes | 219 | High | 
114 (protein, Dicamba decarboxylase variant clone DC.4.116) MAQGKVALEEHFAIPETLQDSAGAVPGDYWKELQHRLLDIQDTRLKLMDAHGIETMILSLNAPAVQAIPDRRKAIEIARRANDVLAEECAKRPDRFLAFAALPLQDPDAATEELQRCVNDLGFVGALVNGFSQEGDGQTPLYYDLPQYRPFWGEVEKLDVPFYLHPRNPLPQDSRIYDGHPWLLGPTWAFAQETAVHALRLMASGLFDEHPRLNIILGHMGEGLPYMMWRIDHRVAWVKLPPRYPAKRRFMDYFNENFHITTSGNFRTQTLIDAILEIGADRILFSTDWPFENIDHASDWFNATSIAEADRVKIGRTNARRLFKLDGA |  |  |  |  | Yes | 221 | High | 
113 (protein, Dicamba decarboxylase variant clone DC.4.114) MAQGKVALEEHFAIPETLQDSAGFVPGDYLKELFHRLLDIQDTRLKLMDAHGIETMILSLNAPAVQAIPDRRKAIEIARRANDVLAEECAKRPDRFLAFAALPLQDPDAATEELQRCVNDLGFVGALVNGFSQEGDGQTPLYYDLPQYRPFWGEVEKLDVPFYLHPRNPLPQDSRIYDGHPWLLGPTWAFAQETAVHALRLMASGLFDEHPRLNIILGHMGEGLPYMMWRIDHRVAWVKLPPRYPAKRRFMDYFNENFHITTSGNFRTQTLIDAILEIGADRILFSTDWPFENIDHASDWFNATSIAEADRVKIGRTNARRLFKLDGA |  |  |  |  | Yes | 224 | High | 
110 (protein, Dicamba decarboxylase variant clone DC.4.111) MAQGKVALEEHFAIPETLQDSMGFVPGDYWKELMHRLLDIQDTRLKLMDAHGIETMILSLNAPAVQAIPDRRKAIEIARRANDVLAEECAKRPDRFLAFAALPLQDPDAATEELQRCVNDLGFVGALVNGFSQEGDGQTPLYYDLPQYRPFWGEVEKLDVPFYLHPRNPLPQDSRIYDGHPWLLGPTWAFAQETAVHALRLMASGLFDEHPRLNIILGHMGEGLPYMMWRIDHRMAWVKLPPRYPAKRRFMDYFNENFHITTSGNFRTQTLIDAILEIGADRILFSTDWPFENIDHASDWFNATSIAEADRVKIGRTNARRLFKLDGA |  |  |  |  | Yes | 277 | High | 
SEQ ID NO:32: o-pyrocatechuate decarboxylase, Streptomyces violaceusniger Tu 4113 (protein, Streptomyces violaceusniger) MARIIAIEEHFLDLDIARASRPEAERLSPAFAAAYGAGQGYNYSPAPEVLLDLEEGRVADMDAHGISMQVLSSLSTQQLPADVAVELVRKVNDRAAAAVAARPDRFAAFAALPTTVPEAAADELDRAVGELGFVGSMINGRTGDAFLDAPRFDAVLRRSAELRVPVYLHPGVPPVETSRSNYEGGLDPIVTARLQTSAWGWHVETGIHFLHLVLAGVFDRYPDLQVILGHWGEMVPFFLERIEEALPQQITHLDRPVGAYFRENAHITPSGMFSQAQLQFCVETVGIERIMFSVDYPFLGNDGAEAFLRQANLPPLATEKIAHLNAERLLALPS | detected | detected | detected | showed decarboxylation activity of dicamba |  |  |  | 
116 (protein, Dicamba decarboxylase variant clone DC.30.007) MAQGKVALEEHFAIPETLQDAAGFVPGDYWKELQHRLLDIQDRRVRLMDEHGIETMILSLNAPAVQAIADSTRANETARRANDFLAEQVAKQPTRFRGFAALPMQDPELAARELERCVKELGFVGALVNGFSQDNRSAVPLYYDMAQYWPFWETVQALDVPFYLHPRNPLPSDARIYDGHAWLLGPTWAFGQETAVHALRLMGSGLFDKYPALKIILGHMGEGLPYSMWRIDHRNAWIKTTPKYPAKRKIVDYFNENFYLTTSGNFRTQTLIDAILEIGADRILFSTDWPFENIDHAADWFENTSISEADRKKIGWGNAQNLFKLNR |  |  |  |  | Yes | 220 | High | 
